Assay: soluble on expression in E. coli; label from the status in PepcDB or PDB records

| Sequence | soluble on expression in E. coli |
| --- | --- |
| AAISLDEQWRMIKENQLMMIAHGIASPRLPEASNLWLISLKLWSCESEIIDEQTFRRSFSDPALSHALDQRVCHDFFQQAAKAVASKGLSIALPLSVAGLSSATLVNELLEQLENSPLPARLLHLIIPAEAIFDHAESVQKLRLAGCRIVFSQVGRDLQIFNSLKANMADYLLLDGELCANVQGNLMDEMLITIIQGHAQRLGMKTIAGPVVLPLVMDTLSGIGVDLIYGDVIANAQPLDLLVNRSYFAIN | not soluble |
| AAMKVYDVTAPIYEGMPVYKNKPEKQPKRTTITNGYVTESRIDMDVHTGTHIDAPLHMVEGGATFETIPLNDLVGPCKLFDLTHVNDRITKDDIAHLDIQEGDFVLFKTKNSFEDAFHFEFIFVAEDAARYLADKQIRGVGIDALGIERAQEGHPTHKTLFSAGVIIIEGLRLKDVPEGRYFMVAAPLKLVGTDAAPARVLLFDREP | soluble |
| AARLPVAPRHLPTLEKFRAEQPTVQGTSTPTISANAALLIGSLLQSEKLPFEVMAARLSPERYALQQFHGSDLQQMLGRFAEPGHLPGKAETEQLIKGFARSLADQLEHFQLMHDATAEAFGPGGLRDRNTLAVSQAALGEYAGRASKSIEAGLNHSLAVLDERIAALDSQLEGATEDSRPVLLMDRQALETARAMLSDLHVDFCKSPEAKRLSAVAAHTQMDALIDKLNVDRSSVGGWKGIGPIVAAAVPQFMVSMLHLGYIRTATSDAMKDAVPEKSADASMKRALAVGLTAGVAHEGVTNLLKPMVQAGFQKAGLNERLNMVPLKGIDTDSVIPDPFELKNDNGALVRKTPEEAAEDKAFVASERAVLNQKKVQVSSTHPLGEMIPYGAFGGGQAVRQMLNDFNLLNGQTLSARAVTSGIAGAISATTQTIAQLNSTYVDPRGRKIPVFTPDRANADLGKDLAKGLDLREPAVRTAFYSKAVSGVQSAALNGALPSVAVQPQGASGTLSAGNIMRNMALAATGSVSYLSTLYANQSVTAEAKALKEAGMGGATPMVARTETALSNIRHPDRASLPHTFQPDTLGGVPRAVENAYHMARGALQLPTQVVVDTVRVVEDGVASGVSSLRDAHKPAET | not soluble |
| ADILLLDNIDSFTWNLADQLRTNGHNVVIYRNHIPAQTLIDRLATMKNPVLMLSPGPGVPSEAGCMPELLTRLRGKLPIIGICLGHQAIVEAYGGYVGQAGEILHGKATSIEHDGQAMFAGLANPLPVARYHSLVGSNVPAGLTINAHFNGMVMAVRHDADRVCGFQFHPESILTTQGARLLEQTLAWAQQK | soluble |
| ADLPGKGITVNPVQSTITEETFQTLLVSRALEKLGYTVNKPSEVDYNVGYTSLASGDATFTAVNWTPLHDNMYEAAGGDKKFYREGVFVNGAAQGYLIDKKTADQYKITNIAQLKDPKIAKLFDTNGDGKADLTGCNPGWGCEGAINHQLAAYELTNTVTHNQGNYAAMMADTISRYKEGKPVFYYTWTPYWVSNELKPGKDVVWLQVPFSALPGDKNADTKLPNGANYGFPVSTMHIVANKAWAEKNPAAAKLFAIMQLPVADINAQNAIMHDGKASEGDIQGHVDGWIKAHQQQFDGWVNEALAAQK | soluble |
| ADVAIVGGGFVGLWTAITLKQLEPDARVLLLEQDVCGGGASGRNGGFVMSWWPKIGTLLGFCSEAQARFLGESAERAIQELGEFCARHDIDAHFQQKGWLWTATTAHHLDAWNDTLAACERLGVSPFERLDASEVARRTGSPVHLAGVFERSNATVQPALLVQGMRRVALALGVEIHERCGVSQIVPGQPAQLLSAGARVQAKAVVLATNAWSAALPRLSRLIVPVNSSIAVTEAIPQRLERIGWTGGEAITDSQLMVDYYRTTRDGRIAFGKGTGALSYGSRIGRVFDVDRESLALTEADFRRTYPSLGDIPLVDGWSGPIDRTYDSLPVFGRLHENIHYGIGWSGNGVGPSRLGGRILASLALGRDDPWSR | not soluble |
| AEAAPCETADGTYHIALPEAENPPVLIFLHGHGGEGAATLRNARLVAPLLARGWAVIAPDGQSRAPGRPRSWTFFPGWEGRDEPAFLAQVLGEASARFGLDADRAVLGGFSAGAFMVTYLACATPGAYRAYVPVSGGFWRPQPDRCAGPVHLFQTHGWADPVVPLEGRFLGGGRFQQGDIFAGLELWRQTNGCVEHKPDGFDQTGPFLRRRWQGCSGGSLEFALFPGGHTVPEGWADMMADWVEAL | not soluble |
| AEAEFNNYCKIKCLKGGVHTACKYGSLKPNCGNKVVVSYGLTKQEKQDILKEHNDFRQKIARGLETRGNPGPQPPAKNMKNLVWNDELAYVAQVWANQCQYGHDTCRDVAKYQVGQNVALTGSTAAKYDDPVKLVKMWEDEVKDYNPKKKFSGNDFLKTGHYTQMVWANTKEVGCGSIKYIQEKWHKHYLVCNYGPSGNFKNEELYQTK | soluble |
| AELRSREYAEILKQKQELSLVEAGEFNSLGKRNGRVYFVETFDTESGIMKNLFLREQDKNGGDNIIFAKEGNFSLNDNKRTLELRHGYRYSGTPGRADYNQVSFQKLNLIISTTPKLIDPVSHRRTIPTAQLIGSSNPQHQAELMWR | soluble |
| AGALWEIEKELFTKLPAPSSAINSHLQPAKPKVPQKKPSKWDPPAEFKVDLSTAVSYNDIGDINWKNLQQFKGIERSEKGTEGLFFVETESGVFIVKRSTNIESETFCSLLCMRLGLHAPKVRVVSSNSEEGTNMLECLAAIDKSFRVITTLANQANILLMELVRGITLNKLTTTSAPEVLTKSTMQQLGSLMALDVIVNNSDRLPIAWTNEGNLDNIMLSERGATVVPIDSKIIPLDASHPHGERVRELLRTLIAHPGHESSQFHSIRDIITLYTGYDVGTEGSISMQEGFLATVRECASFDLDAFERELLSWQESLQKCHNLSISPQAIPFILRMLRIFH | soluble |
| AGMDVRESISLQNQVSMNLAKHVITTVSQNSNVIFSPASINVVLSIIAAGSAGATKDQILSFLKFSSTDQLNSFSSEIVSAVLADGSANGGPKLSVANGAWIDKSLSFKPSFKQLLEDSYKAASNQADFQSKAVEVIAEVNSWAEKETNGLITEVLPEGSADSMTKLIFANALYFKGTWNEKFDESLTQEGEFHLLDGNKVTAPFMTSKKKQYVSAYDGFKVLGLPYLQGQDKRQFSMYFYLPDANNGLSDLLDKIVSTPGFLDNHIPRRQVKVREFKIPKFKFSFGFDASNVLKGLGLTSPFSGEEGLTEMVESPEMGKNLCVSNIFHKACIEVNEEGTEAAAASAGVIKLRGLLMEEDEIDFVADHPFLLVVTENITGVVLFIGQVVDPLH | soluble |
| AHHHHHHASAKWVCKICGYIYDEDAGDPDNGISPGTKFEELPDDWVCPICGAPKSEFEKLEDGSGTREIIIDCYLHDMCEGLNIMTVRGSAYLLVGQNVYPLIEGIVPPTLHFYIKEGYLDIYGFWRVEGEEHAAHIRVAIDKVHVVGTSIIVEPHGALENFDASVVIKLDASEKDLEQLKKIINEEKFWTKEEHGEVISTYLEKHLREKRKKKE | soluble |
| AHHHHHHASAKWVCKICGYIYDEDAGDPDNGISPGTKFEELPDDWVCPICGAPKSEFEKLEDGSQGYSRRGNMMIILKPLIEVDLPEDFVDIIKAKLKGQTVKSGEIITVDILGKPIEFKVLYAEPSPVKVTQKTQIKFAKGNVFEVSLDFKAKDCIITDAFIVLTGESEVLILNHNFEEIRRIEFENLKKIVVKGDLVVLIGEEKVKILKLQ | soluble |
| AHHHHHHGSGKTGIEYFDNFILKDGFPDGSLILVAGEPGAGKTIFSATYLYNGAKKFGEKGVYISLAETKREFYEAMKQLGMDFEELEKKGLFRFIDLVTVSRGAIEKEIQFLMSEISSFQPKRVVIDSISVFAQILGLEKTRVFLHTMLGRFIKAYNATALLIAEKPMGSKTIGHGVEEFVVDGVIILKYKSLGEITRRVMEIPKMRRRSVERAEYEYVITKNGIEFLELPDLVRDKGEYTLEKITTGIEKLDKMLDGGYTRDQMF | soluble |
| AHHHHHHGSGVEKVPKYDIPVKKVEYVFIELDKMKPHEQLVQRELEDFIESVTGSGIFWKPMLLAKIPGTDEYLIVDGHHRWAGLQKLGAKRAPSVILDYFDEGVKVYTWYPAFKGDVNKVIERLKAEGLEVIEDEKAEEKAEKGEIAFALIGEKSFAIPGGLEEQKKVSKVLDEMDQAKEIELVYYGLKEDAKADMEKGEIDYVFIRKAPTKEEVMELVKRGEVFSPKTTRHVLPFIPDKIDVKLEDLF | soluble |
| AHHHHHHGSIIIMDNGGQYVHRIWRTLRYLGVEAKIIPNTTPLDEIKAMKPKGIIFSGGPSLENTGNCEKILEHYEEFNVPILGICLGHQLIAKFFGGEVGRGEKAEYSLVEIEIIDENDIFKGLPRKVRVWESHMDEVKKLPPKFKLLARSDTCPVEAMKHEELPIYGVQFHPEVAHTEHGADILRNFAKICGEL | soluble |
| AHHHHHHGSIPIAKPLIGEEEINAVIEVLKSGMLAHGKEVEAFEREFASYIGVKHGIAVVNGTAALDIALKALKIKPGDEIITTPFTFIASANAILFQGAKPVFADIDPKTYNLDPDEVLEKINEKTKAIIVVHLYGQPADMKAFKEIAEDYKLYLIEDCAQAHGAEFEGQKVGTFGDIAAFSFYPTKNMTTGEGGMVLTNDDELARRARLIRNHGQTEKYLHEELGYNLRMTNIAAALGRVQLRKLDKWNEIRIENAELLTKGIKRIKGLTPPYVDKRVKHVFHQYVIRVEDDFPLTRDELREKLMEKGIGTAVHYPMPVHHQPLYQRLGYSKDCCPNAIEASKRVLSLPVHPAVSKEDINYIIRTLEELG | not soluble |
| AHHHHHHGSKVEGFVASLRNAETIDDLFAILKKKGAPVVEFDGMKKLVIVEGDFEGEKFWTEINGAKANLALGDAMLNAASVPFKCKRDFTGGNLILLDFDSIESNEFLIAYVSEKSGVYFHVKAEEVKEITKEEYDELKDRMPEFKAKSYSEEEMEGMGAFFG | soluble |
| AHHHHHHGSKWEEWKPFYERIVKEMGYSIEEDRRAAELLRDILMENDNYIIKEELNSIIMQKVYVFGAGPNLEEALKKGDFKDGTKIAADGATSALLEYGITPDVVVTDLDGRIRDLLEASRKAVMVVHAHGDNMDKLPLVVEFPLVLGTCQTEPLDIVYNFGGFTDGDRAAFLAEEMGAKEIVLVGFDFSGIVGKWSKPWLRDHTPAWESKMKKLKFARELLEWLKNNGRAKIIEFSI | not soluble |
| AHHHHHHGSNQLEAVREKLRVIRMLRVLKKTYTYEDLSEITGLPVTVLNRYVKGKVLPSVERARELFEKLSPYLNLEEEVKKRLRFDSHGFFDSMSVLSDTNLLALISEDVALKYMKVGVEKILTAATDGIPLAVQIANELGVDVVYAKKKKEVGVERFYEVNYIPSASGSITTLYLPTWALKKGERVLIVDDVVRSGETQRALVELCRQAGAIPVGMFFLISVGDIVERLKEEYNIPVEALVNL | soluble |
| AHHHHHHGSTLRLLNDFVKDKLFGETVLVENNSYLGVETLLFVIFKLGEELNVPILVEDVLDTFSIYKKHLEMLGLKTPENIKILKIGGSEEGKGVVKRIPFDFDISRYLLEYGKSFEDVSPKEKFIDLVFGLDRFFILIDNLIDTAKLLNSIKNYIHNENRTAFYFIEANLLKATKPIILYYLEDIATSVVRINQEKNILTFEPVKDIWSVRNKINQISISFGDLFRETL | not soluble |
| AHHHHHHGSVEVKKHKFPGVYVVIDDDGSEKIATKNLVPGQRVYGERVIKWEGEEYRIWNPHRSKLGAAIVNGLKNFPIKPGKSVLYLGIASGTTASHVSDIVGWEGKIYGIEFSPRVLRELVPIVEERRNIIPILGDATKPEEYRALVTKVDVIFEDVAQPTQAKILIDNAKAYLKRGGYGMIAVKSRSIDVTKEPEQVFKEVERELSEYFEVIERLNLEPYEKDHALFVVRKP | soluble |
| AIAADSAVRGPPGMGGTSTDNMDSVVQGDRRPGSHKGFVEEMRFVAMRLHTRDQAKEGTLEESALPIQEWQPSQQDYLQFLVDSKHVYDFFENFMNQSQDNMFVNFRRTGLERVSALEEDLDWFRQRGFSIPKPEKPGVAYVEYLQSLVQDKPHALLCHWYNFYFAHTAGGRMIGRLMSKLLFDGHVFEFYKWEGDVKQILDQVRVKIDETARDWPREVKDECLKETGLSFSYSGTILGHLAKRG | soluble |

— the DeepSol protein solubility set
